Measured values reported in the RNAGym collection of RNA variant scans (doi:10.1073/pnas.2313332121).
Fewer inactive variants are shown than the library holds.

B1: TPR 5TU (parent)
chain: GGAUCUUCUCGAUCUAACAAAAAAGACAAAUCUGCCACAAAGCUUGAGAGCAUCUUCGGAUGCAGAGGCGGCAGCCUUCGGUGGCGCGAUAGCGCCAACGUUCUCAACUAUGACACGCAAAACGCGUGCUCCGUUGAAUGGAGUUUAUCAUG

Variants of: B1
Test: polymerase ribozyme fitness, log enrichment relative to wild type (log ratio); higher = more active; in vitro selection for triplet polymerase activity
Procedure, shortened: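 After PCR construction and transcription, each subunit's mutant library from a heterodimeric triplet polymerase ribozyme was annealed with a biotinylated primer, the partner subunit and triplets. Incubation was frozen, at −7 °C, and extended constructs were gel-excised, bound to streptavidin beads and amplified by RT-PCR, in one selection round done in triplicate. Fitness is the logarithm of a genotype's enrichment divided by that of the wild type, from inverse-variance-weighted replicate averages of Illumina-sequenced inputs and outputs. The base of the logarithm is 2, and genotypes needed ≥10 input reads and ≥1 read per output.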

Row | Variant | polymerase ribozyme fitness (log ratio)
1 | A12U A120C | -0.776
2 | A12U U13A A91G C93A U102A | ≤ -4.2
3 | A12U C36U | -2.21
4 | U13A A113U | -2.5
5 | G11C A40G U82A G94C G140U | ≤ -4.2
6 | A12G C27G U55A A110G G143A U145G U148G | ≤ -4.2
7 | A12U A29C C87A G94U | ≤ -4.2
8 | A12G C38U C57G G62A C93A | -2.77
9 | G11U C96U A119C | -1.07
10 | A12G G58A U148C | -1.8
11 | A12U G46U G71U A142G | ≤ -4.2
12 | A12C C93U A120G | -0.829
13 | C10U C32U C35U A49C C51A C87A G141A | ≤ -4.2
14 | C10U A37U C57G G58U C87G G140U U145A | ≤ -4.2
15 | A12C C96G C99U | -2.39
16 | G11A G86U C93G | -1.46
17 | A12G U33A A64C G92A G124U | -4
18 | A12G C36A U55G G71A C96G C116A U134G | ≤ -4.2
19 | G11C A17U A23U C38U C95U A138G | ≤ -4.2
20 | A12C C87U | -0.61
21 | U13A A41G C85A A106U | -4.16

Row | Variant | polymerase ribozyme fitness (log ratio)
22 | G11U A24U G50A U56A A60G C87U G126A U146G | ≤ -4.2
23 | A12U C96A | -0.787
24 | A12U A20C C36G A138C | -4.13
25 | A12U G81A C85A C99U | -1.62
26 | U13A A37G C93U | -3.74
27 | A12C U53A C87U | -2
28 | A12C A19U G80U A89G C96A | ≤ -4.2
29 | A12U C18A C51A U55G C87U G94A G143U | ≤ -4.2
30 | C10U A47C | -3.19
31 | G11C A20G A47C | -2.54
32 | A12G A39G | -1.53
33 | A12G A39C | -1.68
34 | C10U C96A C125A | -3.69
35 | G11A A12G A52G U56A G81U | -2.09
36 | A12G U15G A26G C93A A115G | ≤ -4.2
37 | C10U U56A G67C G86C C96A G126U | ≤ -4.2
38 | A12C A19C G58C G62A C63U A97G | ≤ -4.2
39 | A12G U44G A60G G65C C114G | ≤ -4.2
40 | U13A C54A G84U G88U | ≤ -4.2
41 | G11C G25C A41C U78A C99G | -4.09
42 | A12U G84U G100U | ≤ -4.2

Row | Variant | polymerase ribozyme fitness (log ratio)
43 | A12G A28C C116A A147C | ≤ -4.2
44 | G11C C85U A97U G124C | -3.4
45 | A12G A16U G42C C75U C129U | ≤ -4.2
46 | A12G A21C C32U U55G | -1.77
47 | A12U G59C A89U A91U U101C U144C | ≤ -4.2
48 | G11C C76A | -1.78
49 | U13A A22C G50A G84A A121U | -2.93
50 | A12C G59A C75U C114U A150C | ≤ -4.2
51 | A12G U33A A39C G65A G70C C96G A119U C129A U135G | ≤ -4.2
52 | U13A G42C G48C C85A C99G A106G G133U G141C | ≤ -4.2
53 | A12C G94A G152C | -3.98
54 | G11A A23C A29C A30U C36U U44A A73U G81A C125U G143U | ≤ -4.2
55 | C10U A60G | -2.5
56 | A12U A23G C87U A150C | ≤ -4.2
57 | A12G U33G C36A G86U A110C C118U C123U | ≤ -4.2
58 | A12C C36U C85U A147U | -1.81
59 | G11A A12U A52G U53C A91U | -4.08
60 | A12G A52C U55A C118G A120U | -1.84
61 | C10U C96G A119U | ≤ -4.2
62 | A12G C36U A37C G59C U102A C118G A120C U146A | ≤ -4.2
63 | C10U C14U C54U C72U U78A C79U G94C A97U | ≤ -4.2

Row | Variant | polymerase ribozyme fitness (log ratio)
64 | G11U A22G U45G U53G G58C C85U C87A C99G A106U G136A A142U | ≤ -4.2
65 | A12U G58C C76U U102G A138C | ≤ -4.2
66 | A12U A41C | -0.744
67 | G11C C93U U101G G128U | -3.85
68 | G11C A120U | -2.55
69 | A12C A21G A122G G140U | -4.13
70 | G11U A12U A30U U55A C85U C95U A142U | ≤ -4.2
71 | A12U G117C U134C | -0.516
72 | A12G A20U C103A C116A A121U C129A | ≤ -4.2
73 | A12U U13G A52U C54A | ≤ -4.2
74 | A12U C32A A41C C103U | ≤ -4.2
75 | G11A A30G A41C A91U C95G G140C | ≤ -4.2
76 | C10U A39C U77A G84A C95U A120U | ≤ -4.2
77 | A12G A20U A41C C57A A66U C69G A91U C129U | ≤ -4.2
78 | C10U U33A A49G C76U G81A A98G U102C A137C G140U | ≤ -4.2
79 | A12C A24G G50C C72U C87G U111C | ≤ -4.2
80 | G11C C54U G62A A121U | -2.2
81 | A12C U53A U56A | -2.64
82 | U13C A16G A19C U56A G136U U145G | -3.34
83 | U13A A24G C27U A39C G50A G84U | ≤ -4.2
